According to patent US20180362660A1 (published 2018):

Assays:
[1] = target: T1, mouse penumbra protein (mpen) fused to a C-terminal Myc-Hisx6 tag, on BaF3/mpen cells (mouse, UniProt Q8R3S2 1-283); test: flow cytometry, hybridoma supernatant on live BaF3/mpen, GAMIgs-FITC detection
T1 construct: whole, on cells; Stably expressed in the pen-negative mouse pre-B cell line BaF3; also called cell-surface pen; tetraspanin 33; not shown: Myc-Hisx6 tag from vector pcDNA3.1 at the intracellular C-terminus
T1 sequence (looked up): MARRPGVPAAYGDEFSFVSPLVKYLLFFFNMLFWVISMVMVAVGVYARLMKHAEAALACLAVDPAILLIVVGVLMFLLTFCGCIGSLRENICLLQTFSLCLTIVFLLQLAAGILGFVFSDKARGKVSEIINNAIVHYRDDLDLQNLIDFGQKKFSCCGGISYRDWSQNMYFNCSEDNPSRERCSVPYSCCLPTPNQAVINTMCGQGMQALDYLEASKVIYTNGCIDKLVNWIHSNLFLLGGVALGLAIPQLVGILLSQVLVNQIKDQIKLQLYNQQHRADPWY
Procedure: (§1) The medium used for cell staining was Hank's Balanced Salt Solution (HBSS) supplemented with heat-inactivated FBS (5% vol/vol) and sodium azide (0.09% wt/vol). This solution is known as “H5FAH”. All staining and washing were performed at 4° C. The flow cytometer used was a DxP flow cytometer with CYTOTEK™ upgrade (Cytotek). Analysis of flow cytometry data was performed using FLOWJO™ v. 9 (FIG. 3 only) or v.10 (Beckton-Dickinson)(BD). Fluorescence microscopy was performed using a microscope equipped with a digital camera.

[2] = target: T2, human penumbra protein (hpen) (human, UniProt Q86UF1 1-283); test: flow cytometry on human blood mononuclear cells, FITC-conjugated mAb
T2 construct: whole, on cells; Untagged; also called BaF3/hpen; tetraspanin 33
T2 sequence (looked up): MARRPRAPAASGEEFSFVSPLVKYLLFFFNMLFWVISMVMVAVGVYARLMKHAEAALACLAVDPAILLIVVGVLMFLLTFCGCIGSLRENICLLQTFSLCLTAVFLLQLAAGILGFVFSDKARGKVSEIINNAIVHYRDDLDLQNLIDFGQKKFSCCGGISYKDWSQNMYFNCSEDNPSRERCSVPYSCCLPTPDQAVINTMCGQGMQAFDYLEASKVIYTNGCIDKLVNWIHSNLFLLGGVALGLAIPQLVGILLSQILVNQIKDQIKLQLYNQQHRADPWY

[3] = target: T3, mouse penumbra protein (mpen), native, on primary mouse B lymphocytes (mouse, UniProt Q8R3S2 1-283); test: flow cytometry on Balb/C mouse bone marrow cells, FITC-conjugated mAb
T3 construct: whole, on cells; This form has no tag, unlike m5; also called cell surface pen
T3 sequence (looked up): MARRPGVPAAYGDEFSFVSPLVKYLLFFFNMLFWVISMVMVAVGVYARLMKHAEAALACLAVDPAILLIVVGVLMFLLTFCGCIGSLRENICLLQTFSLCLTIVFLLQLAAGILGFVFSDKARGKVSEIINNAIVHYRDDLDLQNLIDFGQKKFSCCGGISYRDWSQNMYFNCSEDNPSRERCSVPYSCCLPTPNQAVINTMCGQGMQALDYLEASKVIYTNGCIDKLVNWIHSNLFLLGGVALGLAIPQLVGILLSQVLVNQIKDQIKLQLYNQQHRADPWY
Procedure: Flow cytometry data were analyzed using FloJo v.10 software. The number in each quadrant denotes %. FIG. 5A: A dot plot of isotype-PE vs. isotype-FITC. FIG. 5B: A dot plot of isotype-PE vs. A296.2-FITC. FIG. 5C: Anti-CD19-PE vs. isotype-FITC. […] FIG. 5E: Anti-B220-PE vs. isotype-FITC. […] FIG. 5G: Anti-CD20-PE vs. isotype-FITC. […] FIG. 5I: Anti-CD138-PE vs. isotype-FITC. […] FIG. 5K: Anti-CD117-PE vs. isotype-FITC. […] FIG. 5M: TER119-PE vs. isotype-FITC. […] FIG. 5O: Anti-Mac-1-PE vs. isotype-FITC. […] Data shown were lymphocyte-gated.
as §1

[4] = target: T1, mouse penumbra protein (mpen) fused to …; test: immunofluorescence microscopy on live BaF3/mpen
[5] = target: T2, human penumbra protein (hpen); test: immunofluorescence microscopy on live BaF3/hpen
[6] = target: T1, mouse penumbra protein (mpen) fused to …; test: indirect immunofluorescence microscopy on live BaF3/mpen

Measured: binding result

B1: mAb 29A6.2 (antibody, V domains shown)
VH: QVQLKQSGPGLVQPSQSLSITCTVSGFSLTSYGVHWVRQSPGKGLEWLGVIWSGGSTDYNAAFISRLSISKDNSKSQVFFKMNSLQADDTAIYYCATFDYWGQGTTLTVSS
VL: DIVITQDELSNPVTSGESVSISCRSSKSLLYKDGKTYLNWFLQRPGQSPQLLIYLMSTRASGVSDRFSGSGSGTDFTLEISRVKAEDVGVYYCQQLVEYPFTFGSGTKLEIKR
notes: Tested as hybridoma supernatant or as purified, FITC-conjugated antibody; also called 29A6.2-FITC; hybridoma 29A6.2
binds: [1] | [2] | [3]

B2: mAb 59E6.8 (antibody, V domains shown)
VH: QVQLQQPGAELVKPGASVKMSCKASGYTFTSYWITWVKQRPGQGLEWIGDIYPGSGSTNYNEKFKSKATLTVDTSSSTAYMQLSSLTSEDSAVYYCARDYYGSSYDYWGQGTTLTVSS
VL: DIVITQDELSNPVTSGESVSISCRSSKSLLYKDGKTYLNWFLQRPGQSPQLLIYLMSTRASGVSDRFSGSGSGTDFTLEISRVKAEDVGVYYCQQLVEYPFTFGSGTKLEIKR
notes: The first 19 amino acids of each entry are signal peptides and are left out; Tested as hybridoma supernatant or as purified, FITC-conjugated antibody; also called 59E6.8-FITC; anti-pen mAb
binds: [4] | [5] | [3]

B3: mAb 41B10.13 (antibody, V domains shown)
VH: QVQLKESGPGLVAPSQSLSITCTVSGFSLTSYAISWVRQPPGKGLEWLGVIWTGGGTNYNSALKSRLSISKDNSKSQVFLKMNSLQTDDTARYYCAREGNAYYSNYESTAYWGQGTLVTVSA
VL: DIVITQDELSNPVTSGESVSISCRSSKSLLYKDGKTYLNWFLQRPGQSPQLLIYLMSTRASGVSDRFSGSGSGTDFTLEISRVKAEDVGVYYCQQLVEYPFTFGSGTKLEIKR
notes: The first 19 amino acids of each entry are signal peptides and are left out; Tested as hybridoma supernatant or as purified, FITC-conjugated antibody; also called 41B10.13-FITC; 41B10-FITC
binds: [5] | [6] | [3]
